Columns and labels:
Test in all cases: BLI
[1] = target: biotinylated FXR NES peptide (amino acids 401–454), T442 phosphorylated (human)
[2] = target: biotinylated FXR NES peptide (amino acids 401–454), T442 non-phosphorylated (human)
[3] = target: biotinylated FXR NLS peptide (amino acids 191–230), K217 acetylated (human)
[4] = target: biotinylated FXR NLS peptide (amino acids 191–230), K217 non-acetylated (human)

Kd [1]	Kd [2]	Kd [3]	Kd [4]	Substance
181 nM	90.1 nM	–	–	CRM1 protein used in the BLI assay (from UniProt O14980 1-1071) (natural protein)
–	–	51 nM	17.4 nM	KPNA3 protein used in the BLI assay (from UniProt O00505 1-521) (natural protein)

Source: publication PMC9978964
